Results taken from paper PMC5663514, “Biochemical characterization of Borrelia burgdorferi’s RecA protein”.

Target: T1, B. burgdorferi RecA (Borrelia burgdorferi B31, UniProt Q59180 1-365)
T1 sequence: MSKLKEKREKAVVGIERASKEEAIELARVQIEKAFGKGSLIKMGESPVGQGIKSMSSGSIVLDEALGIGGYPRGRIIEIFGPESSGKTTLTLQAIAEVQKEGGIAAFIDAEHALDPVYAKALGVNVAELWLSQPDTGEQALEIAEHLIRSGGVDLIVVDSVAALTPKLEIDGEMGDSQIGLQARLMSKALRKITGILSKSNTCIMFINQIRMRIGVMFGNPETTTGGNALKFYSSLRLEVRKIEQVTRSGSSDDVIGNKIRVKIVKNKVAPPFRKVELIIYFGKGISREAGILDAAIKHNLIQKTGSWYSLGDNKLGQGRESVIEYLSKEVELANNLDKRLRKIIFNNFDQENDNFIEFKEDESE
Experiment: EMSA with glutaraldehyde protein-protein crosslinking; 2 mM Mg2+, 2 mM ATP; affinity increased by ATP, discrete shift and well shifts; 25 mM HEPES pH 7.6, 2 mM MgCl2, 1 mM DTT, 50 mM NaCl, +/- 2 mM ATP; 10 nM DNA molecules; 30°C 5 min, then 0.033% glutaraldehyde 5 min at 20°C/room temperature
Details: protein: recombinant; tags: His tag (pET15b NdeI/BamHI, Ni-NTA; N-terminal implied, removal not mentioned); single strand

B1: OGCB396 95 nt ssDNA (ssDNA)
DNA: TGCAGGCATGCAAGCTTGGCGTAATCATGGTCATAGCTGTTTCCTGTGTGAAATTGTTATCCGCTCACAATTCCACACAACATACGAGCCGGAAG
B1: binds.
